Numbering of substitutions follows the chain as printed.

In experiment [1] the target is T1, Human Id2: Histidine (human, UniProt Q02363 1-134, limits assumed).
T1 construct: Fusion protein made in E. coli from vector pGW07; also called h-Id2: His; not shown: His tag
T1 sequence (looked up): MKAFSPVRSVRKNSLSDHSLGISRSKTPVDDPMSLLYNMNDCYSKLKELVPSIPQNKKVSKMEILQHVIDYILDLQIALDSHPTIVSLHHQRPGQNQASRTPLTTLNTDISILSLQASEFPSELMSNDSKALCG
Put plainly: ELISA, Ab 0.005 µg/ml.

In experiment [2] the target is T2, Human Id1: Histidine (human, UniProt P41134 1-155, limits assumed).
T2 construct: Fusion protein made in E. coli from vector pGW07; also called h-Id1: his; not shown: His tag
T2 sequence (looked up): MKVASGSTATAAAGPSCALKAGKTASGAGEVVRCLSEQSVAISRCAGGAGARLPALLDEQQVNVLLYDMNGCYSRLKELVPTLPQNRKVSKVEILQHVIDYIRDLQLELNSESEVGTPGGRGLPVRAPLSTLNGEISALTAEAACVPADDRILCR
Put plainly: ELISA, Ab 0.010 µg/ml.

Experiment [3] addresses T3, Mouse Id2: Histidine (mouse, UniProt P41136 1-134, limits assumed).
T3 construct: Fusion protein made in E. coli from vector pGW07; also called m-Id2: His; not shown: His tag
T3 sequence (looked up): T1 sequence (looked up) with S60T, A131V
Put plainly: ELISA, Ab 0.010 µg/ml.

The target of experiment [4] is T1, Human Id2: Histidine. Put plainly: ELISA, Ab 0.010 µg/ml.
Experiment [5] deals with T4, Mouse Id3: Histidine (mouse, UniProt P41133 1-119).
T4 construct: Fusion protein made in E. coli from vector pGW07; also called m-Id3: His; Mouse Id3 (coated wells); not shown: His tag
T4 sequence: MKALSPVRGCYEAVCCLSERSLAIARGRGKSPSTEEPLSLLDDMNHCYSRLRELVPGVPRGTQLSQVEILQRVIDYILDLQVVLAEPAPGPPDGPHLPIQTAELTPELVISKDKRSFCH
Put plainly: ELISA, Ab 0.010 µg/ml.

The target of experiment [6] is T5, Human Id3: Histidine (human, UniProt Q02535 1-119 at identity 1.00)).
T5 construct: Fusion protein made in E. coli from vector pGW07; also called h-Id3: His; Human Id3 (coated wells); not shown: His tag
T5 chain: T4 sequence with S31G, S33A, T34A, T105A, K112N
Put plainly: ELISA, Ab 0.010 µg/ml.

In experiment [7] the target is T6, Mouse Id1: Histidine (mouse, UniProt P20067-2 1-148, limits assumed).
T6 construct: Fusion protein made in E. coli from vector pGW07; also called m-Id1-His; not shown: His tag
T6 sequence (looked up): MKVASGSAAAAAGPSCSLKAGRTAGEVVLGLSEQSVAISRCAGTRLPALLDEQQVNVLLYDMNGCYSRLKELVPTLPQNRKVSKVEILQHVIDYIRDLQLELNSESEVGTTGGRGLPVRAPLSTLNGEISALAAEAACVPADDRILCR
As to the kind of experiment: ELISA, Ab 0.010 µg/ml.

Experiment [8] has as its target T3, Mouse Id2: Histidine. As to the kind of experiment: ELISA, Ab 0 µg/ml (blank).
The target in experiment [9] is T1, Human Id2: Histidine. As to the kind of experiment: ELISA, Ab 0 µg/ml (blank).
The target of experiment [10] is T2, Human Id1: Histidine. As to the kind of experiment: ELISA, positive control (stated to be BCH-4/6-1) 0.25 µg/ml. As for the experimental part:
(§1) 1. Dispense 100 μL of antibody diluent, diluted rabbit monoclonal human Id3, and mouse/human Id3 hybridoma supernatants into appropriate wells. […] 2. Incubate at room temperature with mechanical shaking at 750 rpm for 90 minutes. [0165] 3. Remove the incubation mixture by flicking plate content into an appropriate waste container followed by rinsing the wells 5 times with distilled water. [0166] 4. Strike the wells sharply onto absorbent paper or paper towels to remove all residual water droplets. [0167] 5. Dispense 100 μL of 1:50,000 Goat Anti-Rabbit IgG-HRP Conjugate Reagent into each well. Gently mix for 5 seconds. [0168] 6. Incubate at room temperature with mechanical shaking at 750 rpm for 90 minutes. [0169] 7. Repeat procedures 3 and 4. [0170] 8. Dispense 100 μL of TMB Reagent into each well. Gently mix for 5 seconds. [0171] 9. Incubate at room temperature with mechanical shaking at 750 rpm for 20 minutes. […] 10. Add 100 μL of Stop Solution (1N HCl) into each well. [0173] 11. Gently mix for 10 seconds to ensure a complete mixing. [0174] 12. Read optical density at A450 nm.
(§2) The materials and method are the same as those described in Example 9 except the following.
(§3) Rabbit monoclonal anti-mouse Id3, hybridoma supernatant was used as the test antibody. Protein G purified, rabbit monoclonal anti-mouse/human Id3 antibody, BCH-4/6-1, 0.92 mg/ml in 0.25% BSA was used as positive controls.

In experiment [11] the target is T3, Mouse Id2: Histidine. The description is as above. As for the experimental part:
as §1, §2, §3

In experiment [12] the target is T1, Human Id2: Histidine. Described as above. As for the experimental part: as §1, §2, §3
Experiment [13] addresses T4, Mouse Id3: Histidine. The description is as above. As for the experimental part:
as §1, §2, §3

Experiment [14] has as its target T5, Human Id3: Histidine. The description is as above. As for the experimental part: as §1, §2, §3
Experiment [15] concerns the target T6, Mouse Id1: Histidine. Described as above. As for the experimental part:
as §1, §2, §3

B1: rabbit monoclonal anti-mouse/human Id3, clone #BCH-4/#6-1 (antibody, V domains shown)
VH: QSVEESGGRLVTPGTPLTLTCTASGFSLSNVYIHWVRQAPGKGLEWIGYISDGDTARYATWAKGRFTISKTSSTTVNLKMTSLTTEDTATYFCARQGFNIWGPGTLVTVSL
VL: AVLTQTPSPVSAAVGGTVSISCQSSQSVWNNNWLSWFQQKPGQPPKLLIYETSKLESGVPSRFKGSGSGTQFTLTISDVQCDDAATYYCLGGYWTTSDNNVFGGGTEVVVK
notes: Rabbit IgG from a rabbit hybridoma; also called m/h Id3 MoAb 6-1
Turning to B1, the A450 in the experiment with Human Id2: Histidine [1] amounted to 0.076 A450; with Human Id1: Histidine [2] it was 0.078 A450; in the experiment with Mouse Id2: Histidine [3] it was 0.071 A450; in the experiment with Human Id2: Histidine [4], 0.071 A450; with Mouse Id3: Histidine [5] it was 0.53 A450; with Human Id3: Histidine [6], 0.48 A450. Further, the A450 with Mouse Id1: Histidine [7] is 0.079 A450; in the experiment with Mouse Id2: Histidine [8] it was 0.058 A450; with Human Id2: Histidine [9] it was 0.064 A450; with Human Id1: Histidine [10], 2.12 A450; with Mouse Id2: Histidine [11], 2.44 A450; with Human Id2: Histidine [12], 2.54 A450. The A450 is 2.81 A450 in the experiment with Mouse Id3: Histidine [13], 2.69 A450 with Human Id3: Histidine [14] and 1.96 A450 with Mouse Id1: Histidine [15].

The record behind these values is US20070178531A1 (BIOCHECK, published 2007).
